{"source": "patent US20160145328A1", "about": "(published 2016)"}
{"target": "T1, protein A (UniProt P38507 37-477)", "T1 construct": "also called Protein A superantigen", "test": "Heat/Cool phage ELISA: phage-displayed VH, 80 C 10 min then 4 C 10 min, captured on coated protein A; signal as % of untreated sample", "protocol": "(§1) The aggregation-resistance of clones was analyzed by measuring retention of signal after heat incubation in a phage ELISA format (McCafferty et al., 1990; Jespers et al., 2004). Wells of a Nunc Maxisorp Immuno-plate were coated overnight with protein A at a concentration of about 5 μg/ml in phosphate-buffered saline (PBS). The plate was washed once with PBS and blocked with about 4% (w/v) milk powder diluted in PBS (MPBS). Single colonies were picked from agar plates and grown overnight in 2×TY medium (containing about 16 g/L tryptone; about 10 g/L yeast extract; about 5 g/L NaCl, pH 7.0) supplemented with about 15 μg/ml tetracycline shaking at about 30° C. Cells were removed by centrifugation and phages were biotinylated directly in the culture supernatant by adding biotin-PEO₄-N-hydroxysuccinimide (Pierce; about 50 μM final concentration). For heat selection, supernatant was first incubated at about 80° C. for about 10 min and then at about 4° C. for about 10 min. Supernatant was added to the blocked ELISA wells. After three washes with PBS, bound phage particles were detected using an Extravidin-HRP conjugate (Sigma) and 3,3′,5,5′-tetramethylbenzidine (TMB) substrate. Absorbance was calculated by subtracting measurements at 450 and 650 nm.\nTo identify additional residues in CDR1 that confer aggregation-resistance on VH, surface-exposed residues of DP47 between positions 26 to 35 (numbering according to the Kabat numbering system) were substituted for aspartic acid (D) or glutamic acid (E). Framework residues at positions 39 and 40 were also substituted for aspartic acid (D) or glutamic acid (E). […] Correctly folded VH were captured by protein A ELISA and the absorbance signal of the treated sample was calculated as a percentage of the untreated sample.", "units": {"Retained binding to protein A (%)": "%"}}
{"binder": "DP47 VH A33D (other, name in Kabat numbering) VH: QVQLLESGGGLVQPGGSLRLSCAASGFTFSSYDMSWVRQAPGKGLEWVSAISGSGGSTYYADSVKGRFTISRDNSKNTLYLQMNSLRAEDTAVYYCAKSYGAFDYWGQGTLVTVSS", "Retained binding to protein A (%)": 10}
{"binder": "DP47 VH T28E (other, name in Kabat numbering) VH: QVQLLESGGGLVQPGGSLRLSCAASGFEFSSYAMSWVRQAPGKGLEWVSAISGSGGSTYYADSVKGRFTISRDNSKNTLYLQMNSLRAEDTAVYYCAKSYGAFDYWGQGTLVTVSS", "Retained binding to protein A (%)": 6.5}
{"binder": "DP47 VH A33E (other, name in Kabat numbering) VH: QVQLLESGGGLVQPGGSLRLSCAASGFTFSSYEMSWVRQAPGKGLEWVSAISGSGGSTYYADSVKGRFTISRDNSKNTLYLQMNSLRAEDTAVYYCAKSYGAFDYWGQGTLVTVSS", "Retained binding to protein A (%)": 2}
{"binder": "DP47 VH G26D (other, name in Kabat numbering) VH: QVQLLESGGGLVQPGGSLRLSCAASDFTFSSYAMSWVRQAPGKGLEWVSAISGSGGSTYYADSVKGRFTISRDNSKNTLYLQMNSLRAEDTAVYYCAKSYGAFDYWGQGTLVTVSS", "Retained binding to protein A (%)": 6.1}
{"binder": "DP47 VH S35D (other, name in Kabat numbering) VH: QVQLLESGGGLVQPGGSLRLSCAASGFTFSSYAMDWVRQAPGKGLEWVSAISGSGGSTYYADSVKGRFTISRDNSKNTLYLQMNSLRAEDTAVYYCAKSYGAFDYWGQGTLVTVSS", "Retained binding to protein A (%)": 12.8}
{"binder": "DP47 VH A40E (other, name in Kabat numbering) VH: QVQLLESGGGLVQPGGSLRLSCAASGFTFSSYAMSWVRQEPGKGLEWVSAISGSGGSTYYADSVKGRFTISRDNSKNTLYLQMNSLRAEDTAVYYCAKSYGAFDYWGQGTLVTVSS", "Retained binding to protein A (%)": 1.9}
{"binder": "DP47 VH S30D (other, name in Kabat numbering) VH: QVQLLESGGGLVQPGGSLRLSCAASGFTFDSYAMSWVRQAPGKGLEWVSAISGSGGSTYYADSVKGRFTISRDNSKNTLYLQMNSLRAEDTAVYYCAKSYGAFDYWGQGTLVTVSS", "Retained binding to protein A (%)": 21.8}
{"binder": "DP47 VH T28D (other, name in Kabat numbering) VH: QVQLLESGGGLVQPGGSLRLSCAASGFDFSSYAMSWVRQAPGKGLEWVSAISGSGGSTYYADSVKGRFTISRDNSKNTLYLQMNSLRAEDTAVYYCAKSYGAFDYWGQGTLVTVSS", "Retained binding to protein A (%)": 25.1}
{"binder": "DP47 VH A40D (other, name in Kabat numbering) VH: QVQLLESGGGLVQPGGSLRLSCAASGFTFSSYAMSWVRQDPGKGLEWVSAISGSGGSTYYADSVKGRFTISRDNSKNTLYLQMNSLRAEDTAVYYCAKSYGAFDYWGQGTLVTVSS", "Retained binding to protein A (%)": 2.8}
{"binder": "DP47 VH Q39D (other, name in Kabat numbering) VH: QVQLLESGGGLVQPGGSLRLSCAASGFTFSSYAMSWVRDAPGKGLEWVSAISGSGGSTYYADSVKGRFTISRDNSKNTLYLQMNSLRAEDTAVYYCAKSYGAFDYWGQGTLVTVSS", "Retained binding to protein A (%)": 3.7}
{"binder": "DP47 VH Y32D (other, name in Kabat numbering) VH: QVQLLESGGGLVQPGGSLRLSCAASGFTFSSDAMSWVRQAPGKGLEWVSAISGSGGSTYYADSVKGRFTISRDNSKNTLYLQMNSLRAEDTAVYYCAKSYGAFDYWGQGTLVTVSS", "Retained binding to protein A (%)": 41.8}
{"binder": "DP47 VH S30E (other, name in Kabat numbering) VH: QVQLLESGGGLVQPGGSLRLSCAASGFTFESYAMSWVRQAPGKGLEWVSAISGSGGSTYYADSVKGRFTISRDNSKNTLYLQMNSLRAEDTAVYYCAKSYGAFDYWGQGTLVTVSS", "Retained binding to protein A (%)": 2.1}
{"binder": "DP47 VH S35E (other, name in Kabat numbering) VH: QVQLLESGGGLVQPGGSLRLSCAASGFTFSSYAMEWVRQAPGKGLEWVSAISGSGGSTYYADSVKGRFTISRDNSKNTLYLQMNSLRAEDTAVYYCAKSYGAFDYWGQGTLVTVSS", "Retained binding to protein A (%)": 4.5}
{"binder": "DP47 VH S31E (other, name in Kabat numbering) VH: QVQLLESGGGLVQPGGSLRLSCAASGFTFSEYAMSWVRQAPGKGLEWVSAISGSGGSTYYADSVKGRFTISRDNSKNTLYLQMNSLRAEDTAVYYCAKSYGAFDYWGQGTLVTVSS", "Retained binding to protein A (%)": 6.1}
{"binder": "DP47 VH G26E (other, name in Kabat numbering) VH: QVQLLESGGGLVQPGGSLRLSCAASEFTFSSYAMSWVRQAPGKGLEWVSAISGSGGSTYYADSVKGRFTISRDNSKNTLYLQMNSLRAEDTAVYYCAKSYGAFDYWGQGTLVTVSS", "Retained binding to protein A (%)": 1.8}
{"binder": "DP47 VH Q39E (other, name in Kabat numbering) VH: QVQLLESGGGLVQPGGSLRLSCAASGFTFSSYAMSWVREAPGKGLEWVSAISGSGGSTYYADSVKGRFTISRDNSKNTLYLQMNSLRAEDTAVYYCAKSYGAFDYWGQGTLVTVSS", "Retained binding to protein A (%)": 2.5}
{"target": "T1, protein A", "test": "Heat/Cool phage ELISA: phage-displayed VH, 80 C 10 min then 4 C 10 min, captured on coated protein A; signal as % of untreated sample", "remark": "another data set of the same source", "protocol": "as §1\nSingle amino acid changes in the CDR1 region of the DP47 VH domain, and combinations thereof, were constructed and tested for aggregation-resistance, as detailed above (see the Materials and Methods section). […] Correctly folded VH were captured by protein A ELISA and the absorbance signal of the treated sample was calculated as a percentage of the untreated sample.", "units": {"Retained binding to protein A": "%"}}
{"binder": "DP47 VH A33D (other, name in Kabat numbering) VH: QVQLLESGGGLVQPGGSLRLSCAASGFTFSSYDMSWVRQAPGKGLEWVSAISGSGGSTYYADSVKGRFTISRDNSKNTLYLQMNSLRAEDTAVYYCAKSYGAFDYWGQGTLVTVSS", "Retained binding to protein A": 26}
{"binder": "DP47 VH T28R (other, name in Kabat numbering) VH: QVQLLESGGGLVQPGGSLRLSCAASGFRFSSYAMSWVRQAPGKGLEWVSAISGSGGSTYYADSVKGRFTISRDNSKNTLYLQMNSLRAEDTAVYYCAKSYGAFDYWGQGTLVTVSS", "Retained binding to protein A": 2}
{"binder": "DP47 VH S35G (other, name in Kabat numbering) VH: QVQLLESGGGLVQPGGSLRLSCAASGFTFSSYAMGWVRQAPGKGLEWVSAISGSGGSTYYADSVKGRFTISRDNSKNTLYLQMNSLRAEDTAVYYCAKSYGAFDYWGQGTLVTVSS", "Retained binding to protein A": 4}
{"target": "T1, protein A", "test": "Heat/Cool phage ELISA: phage-displayed VH, 80 C 10 min then 4 C 10 min, captured on coated protein A; signal as % of untreated sample", "remark": "another data set of the same source", "protocol": "as §1\nVH domains were produced comprising negatively charged amino acids at positions 28 and/or 35 in CDR1 of DP47 and at least one other position, as set out in Table 7. Aggregation-resistance of the VH domains was assessed using the “Heat/Cool” assay as described in Example 1.2.", "units": {"Retained binding to protein A (%)": "%"}}
{"binder": "DP47 VH S35D + S31D (other, name in Kabat numbering) VH: QVQLLESGGGLVQPGGSLRLSCAASGFTFSDYAMDWVRQAPGKGLEWVSAISGSGGSTYYADSVKGRFTISRDNSKNTLYLQMNSLRAEDTAVYYCAKSYGAFDYWGQGTLVTVSS", "Retained binding to protein A (%)": 48.3}
{"binder": "DP47 VH S35D + A33D (other, name in Kabat numbering) VH: QVQLLESGGGLVQPGGSLRLSCAASGFTFSSYDMDWVRQAPGKGLEWVSAISGSGGSTYYADSVKGRFTISRDNSKNTLYLQMNSLRAEDTAVYYCAKSYGAFDYWGQGTLVTVSS", "Retained binding to protein A (%)": 40.3}
{"binder": "DP47 VH T28D + S30D (other, name in Kabat numbering) VH: QVQLLESGGGLVQPGGSLRLSCAASGFDFDSYAMSWVRQAPGKGLEWVSAISGSGGSTYYADSVKGRFTISRDNSKNTLYLQMNSLRAEDTAVYYCAKSYGAFDYWGQGTLVTVSS", "Retained binding to protein A (%)": 39.4}
{"binder": "DP47 VH T28D + A33D (other, name in Kabat numbering) VH: QVQLLESGGGLVQPGGSLRLSCAASGFDFSSYDMSWVRQAPGKGLEWVSAISGSGGSTYYADSVKGRFTISRDNSKNTLYLQMNSLRAEDTAVYYCAKSYGAFDYWGQGTLVTVSS", "Retained binding to protein A (%)": 62}
{"binder": "DP47 VH T28D + Y32D (other, name in Kabat numbering) VH: QVQLLESGGGLVQPGGSLRLSCAASGFDFSSDAMSWVRQAPGKGLEWVSAISGSGGSTYYADSVKGRFTISRDNSKNTLYLQMNSLRAEDTAVYYCAKSYGAFDYWGQGTLVTVSS", "Retained binding to protein A (%)": 64.7}
{"binder": "DP47 VH S35D + Y32D (other, name in Kabat numbering) VH: QVQLLESGGGLVQPGGSLRLSCAASGFTFSSDAMDWVRQAPGKGLEWVSAISGSGGSTYYADSVKGRFTISRDNSKNTLYLQMNSLRAEDTAVYYCAKSYGAFDYWGQGTLVTVSS", "Retained binding to protein A (%)": 61}
{"binder": "DP47 VH T28D + S35D (other, name in Kabat numbering) VH: QVQLLESGGGLVQPGGSLRLSCAASGFDFSSYAMDWVRQAPGKGLEWVSAISGSGGSTYYADSVKGRFTISRDNSKNTLYLQMNSLRAEDTAVYYCAKSYGAFDYWGQGTLVTVSS", "Retained binding to protein A (%)": 45.8}
{"binder": "DP47 VH T28D + S31D (other, name in Kabat numbering) VH: QVQLLESGGGLVQPGGSLRLSCAASGFDFSDYAMSWVRQAPGKGLEWVSAISGSGGSTYYADSVKGRFTISRDNSKNTLYLQMNSLRAEDTAVYYCAKSYGAFDYWGQGTLVTVSS", "Retained binding to protein A (%)": 44.8}
{"binder": "DP47 VH S35D + S30D (other, name in Kabat numbering) VH: QVQLLESGGGLVQPGGSLRLSCAASGFTFDSYAMDWVRQAPGKGLEWVSAISGSGGSTYYADSVKGRFTISRDNSKNTLYLQMNSLRAEDTAVYYCAKSYGAFDYWGQGTLVTVSS", "Retained binding to protein A (%)": 43.5}
